Experimental data reported in patent publication US20220064272A1 (TAUC3 BIOLOGICS, published 2022).
Values joined by “and” are separate entries in the source; they are usually repeats but may differ in a detail not shown here. Equal entries are not always repeated.

What was measured:
[1] = molecular target: T1, TauC3 (C-terminally truncated tau fragment ending at aspartate 421 of htau40) (human, UniProt P10636 1-738); assay: binding ELISA on coated TauC3, OD650
T1 construct: Generated and purified by Genscript; also called Human TauC3; recombinant TauC3 protein
Procedure, shortened: (§1)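 Binding ELISA on coated TauC3 antigen, which was made and purified by Genscript. Chimeric or humanized IgG4κ antibodies were expressed in ExpiCHO cells. Binding was read as absorbance at 650 nm. EC50 was derived from the antibody concentration-response.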

[2] = molecular target: T1, TauC3 (C-terminally truncated tau …); assay: binding ELISA on coated TauC3, OD650; remark: listed apart in the source
Procedure, shortened: as §1

[3] = molecular target: T1, TauC3 (C-terminally truncated tau …); assay: binding ELISA on coated TauC3, OD650; remark: listed apart in the source
Procedure, shortened: as §1

[4] = molecular target: T1, TauC3 (C-terminally truncated tau …); assay: binding ELISA, TauC3 coated; FIG. 16 ELISA
Procedure, shortened: as §1

[5] = molecular target: T1, TauC3 (C-terminally truncated tau …); assay: binding ELISA on coated TauC3, OD650; remark: listed apart in the source
Procedure, shortened: as §1

[6] = molecular target: T1, TauC3 (C-terminally truncated tau …); assay: binding ELISA, TauC3 coated
Procedure, shortened: as §1

[7] = molecular target: T1, TauC3 (C-terminally truncated tau …); assay: binding ELISA on coated TauC3, OD650; remark: listed apart in the source
Procedure, shortened: as §1

[8] = molecular target: T1, TauC3 (C-terminally truncated tau …); assay: binding ELISA on coated TauC3, OD650; remark: listed apart in the source
Procedure, shortened: as §1

[9] = molecular target: T1, TauC3 (C-terminally truncated tau …); assay: Biacore off-rate ranking, TauC3 amine-coupled on CM5, one antibody concentration; one-phase exponential decay fit
Description: (§2) To further evaluate the binding data observed on the Octet, an off-rate ranking experiment was performed on the Biacore 200 instrument. Biacore offers greater selectivity than the Octet and facilitated the immobilization of TauC3 onto a CM5 chip via amine coupling which stabilizes the antigen. This produces higher quality data with stable baselines and good reproducible responses. Once TauC3 is immobilized, one concentration (5 nM) of antibody is added, followed by a dissociation and regeneration step (Section 8.20). The off-rates were fitted using a two-phase decay model (FIG. 25B) or a one phase decay fitting only the second off-rate (FIG. 25A). The candidates were then ranked based on the off-rates obtained using the fits and compared. The data agreed with the Octet results (albeit with a different ranking order), highlighting Tau01 HMKM, HMKO, HMKP, HMKN and HMKE as the humanized variants with the slowest off-rates. The lack of binding of FL Tau to chimeric and a humanized candidate was also confirmed by Biacore by loading the antibody onto a Protein G chip and adding 250 nM FL Tau.

[10] = molecular target: T1, TauC3 (C-terminally truncated tau …); assay: binding ELISA on coated TauC3, OD650; right table (HM variants)
Procedure, shortened: as §1

[11] = molecular target: T1, TauC3 (C-terminally truncated tau …); assay: Biacore off-rate ranking, TauC3 amine-coupled on CM5, one antibody concentration; two-phase decay fit, slow phase; parameters: unit not given here
Description: as §2

[12] = molecular target: T1, TauC3 (C-terminally truncated tau …); assay: Biacore kinetics, TauC3 amine-coupled on CM5, antibody series, 1:1 global fit
Description: To determine the affinity of the binding interactions, a biacore kinetic assay was developed which involved immobilizing TauC3 on a CM5 chip via amine coupling and injecting a concentration series of the respective antibody over it.

[13] = molecular target: T1, TauC3 (C-terminally truncated tau …); assay: SPR (Biacore) kinetics, TauC3 amine-coupled on CM5, 1:1 global fit
Procedure, shortened: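 Surface plasmon resonance (Biacore) was used with purified TauC3 immobilised on a CM5 chip by amine coupling. A concentration series of each purified antibody was injected over the chip. Association rate, dissociation rate and Kd were obtained by a 1:1 global fit.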

[14] = molecular target: T1, TauC3 (C-terminally truncated tau …); assay: binding ELISA on TauC3 after 21 days at 37 C in PBS or mouse, human, cynomolgus serum, with non-incubated control
Description: Purified samples of the chimeric and humanized antibodies were incubated in mouse, human and cynomolgus serum for 21 days. The binding of the Tau01 HMKE, HMKM, HMKN, HMKO, HMKP candidate antibodies which had been incubated in the 3 different serums were compared with an antibody incubated in PBS and a 4° C. positive control sample by binding ELISA to TauC3 (FIG. 37). The Tau01 HMKE, HMKM, HMKN, HMKO, HMKP candidate antibodies retained their binding capability after being incubated in mouse, human and cynomolgus serum.

[15] = molecular target: T2, full length Tau (2N4R, htau40) (human, UniProt P10636 1-758); assay: Octet, antibody on Protein G sensor, FL Tau in solution
T2 construct: Generated and purified by Genscript; also called FL Tau; FLT
Procedure, shortened: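 Antibody loaded on Protein G biosensors was tested by Bio-Layer Interferometry (OctetRed96) for binding to purified full-length tau in solution. The tau was made and purified by Genscript. Full-length tau was applied at 500 nM. The result is the binding signal response in nm.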

[16] = molecular target: T1, TauC3 (C-terminally truncated tau …); assay: binding ELISA on coated TauC3, OD650; remark: listed apart in the source
Procedure, shortened: as §1

T2 sequence (P10636 other isoform, or with tags, fused parts or gaps limits assumed): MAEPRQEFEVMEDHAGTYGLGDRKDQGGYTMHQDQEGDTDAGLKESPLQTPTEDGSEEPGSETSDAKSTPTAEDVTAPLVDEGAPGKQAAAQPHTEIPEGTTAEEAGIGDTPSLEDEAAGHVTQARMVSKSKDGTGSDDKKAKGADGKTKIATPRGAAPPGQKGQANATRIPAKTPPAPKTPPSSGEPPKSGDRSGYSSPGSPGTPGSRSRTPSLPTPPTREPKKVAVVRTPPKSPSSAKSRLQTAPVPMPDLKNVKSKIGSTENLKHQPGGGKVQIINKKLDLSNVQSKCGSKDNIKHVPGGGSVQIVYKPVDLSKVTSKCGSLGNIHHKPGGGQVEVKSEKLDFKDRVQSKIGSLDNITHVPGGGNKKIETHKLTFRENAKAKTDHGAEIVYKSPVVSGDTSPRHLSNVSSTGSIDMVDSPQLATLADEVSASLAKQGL
T1 sequence (P10636 other isoform, or with tags, fused parts or gaps): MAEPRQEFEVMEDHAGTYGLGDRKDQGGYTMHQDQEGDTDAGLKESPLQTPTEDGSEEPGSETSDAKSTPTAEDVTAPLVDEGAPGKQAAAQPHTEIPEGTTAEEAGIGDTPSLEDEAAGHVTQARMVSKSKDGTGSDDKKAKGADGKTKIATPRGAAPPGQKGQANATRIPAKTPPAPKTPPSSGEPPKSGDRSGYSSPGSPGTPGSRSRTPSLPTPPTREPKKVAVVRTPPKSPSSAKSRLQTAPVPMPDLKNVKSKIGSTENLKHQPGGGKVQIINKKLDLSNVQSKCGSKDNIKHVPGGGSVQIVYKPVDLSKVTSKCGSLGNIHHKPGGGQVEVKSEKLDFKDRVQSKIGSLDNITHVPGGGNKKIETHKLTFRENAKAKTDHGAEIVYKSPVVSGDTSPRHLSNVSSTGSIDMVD

| koff [9] | EC50 [10] | Kslow [11] | koff [12] | Kd [13] | koff [13] | kon [13] | EC50 (read off the curve) [14] | binding result [15] | Kd [12] | Binder | further results |
| --- | --- | --- | --- | --- | --- | --- | --- | --- | --- | --- | --- |
|  |  |  |  |  |  |  |  |  |  | Tau01 HBKA (antibody, V domains shown, human IgG4 kappa (HuG4K)) VH: EVQVVESGGGLVQPGGSLKLSCAASGFTFNTYAMNWVRQASGKGLEWVARIRSKSNNYATYYADSVKGRFTISRDDSKSMVYLQMDSLKTEDTAVYYCVGGGDFWGQGTLVTVSS VL: DIQMTQSPSSLSASVGDRVTITCRASQEISVYLGWYQQKPGKAPKRLIYGAFKLQSGVPSRFSGSRSGTEFTLTISSLQPEDFATYYCLQYVRYPWTFGGGTKVEIK | EC50 [1]: 0.92 nM; EC50 [2]: 1.39 nM; EC50 [3]: 0.795 nM |
|  |  |  |  |  |  |  |  |  |  | Tau01 HBKB (antibody, V domains shown, human IgG4 kappa (HuG4K)) VH: EVQVVESGGGLVQPGGSLKLSCAASGFTFNTYAMNWVRQASGKGLEWVARIRSKSNNYATYYADSVKGRFTISRDDSKSMVYLQMDSLKTEDTAVYYCVGGGDFWGQGTLVTVSS VL: DIQMTQSPSSLSASVGDRVTITCRASQEISVYLSWFQQKPGKAIKRLIYGAFTLQSGVPSRFSGSRSGSEYTLTISSLQPEDFATYYCLQYVRYPWTFGGGTKVEIK | EC50 [4]: 0.81 nM; EC50 [3]: 0.767 nM; EC50 [5]: 0.402 nM; EC50 [6]: 0.78 nM; EC50 [7]: 0.402 nM; EC50 [8]: 0.402 nM |
| 0.000811 s⁻¹ | 0.499 nM | 0.000777 | 0.00186 s⁻¹ | 0.013 nM | 0.00186 s⁻¹ | 1.43e+08 M⁻¹ s⁻¹ | ~0.6 nM | no binding |  | Tau01 HMKP HuG4k (antibody, V domains shown, human IgG4 kappa (HuG4K); Lead candidate) VH: LVQLVESGGGLVQPGGSLKLSCAASGFTFNTYAMNWVRQASGKGLEWVARIRSKSNNYATYYAASVKGRFTISRDDSKSMAYLQMDSLKTEDTAVYYCVGGGDFWGQGTLVTVSS VL: DIQMTQSPSSLSASVGDRVTITCRASQEISVYLGWFQQKPGKAPKRLIYGAFKLQSGVPSRFSGSRSGTEYTLTISSLQPEDFATYYCLQYVRYPWTFGGGTKVEIK | kon [12]: 1.43e+08 M⁻¹ s⁻¹ |
|  |  |  |  |  |  |  |  |  |  | Tau01 HFKB (antibody, V domains shown, human IgG4 kappa (HuG4K)) VH: LVQLVESGGGLVQPGGSLKLSCAASGFTFNTYAMNWVRQASGKGLEWVGRIRSKSNNYATAYAASVKGRFTISRDDSKNTAYLQMDSLKTEDTAVYYCVGGGDFWGQGTLVTVSS VL: DIQMTQSPSSLSASVGDRVTITCRASQEISVYLSWFQQKPGKAIKRLIYGAFTLQSGVPSRFSGSRSGSEYTLTISSLQPEDFATYYCLQYVRYPWTFGGGTKVEIK | EC50 [16]: 2.93 nM |
|  |  |  |  |  |  |  |  |  |  | Tau01 HBKC (antibody, V domains shown, human IgG4 kappa (HuG4K)) VH: EVQVVESGGGLVQPGGSLKLSCAASGFTFNTYAMNWVRQASGKGLEWVARIRSKSNNYATYYADSVKGRFTISRDDSKSMVYLQMDSLKTEDTAVYYCVGGGDFWGQGTLVTVSS VL: DIQMTQSPSSLSASVGDRVTITCRASQEISVYLSWFQQKPGKAPKRLIYGAFKLQSGVPSRFSGSRSGTEYTLTISSLQPEDFATYYCLQYVRYPWTFGGGTKVEIK | EC50 [2]: 0.99 nM; EC50 [4]: 0.84 nM |
| 0.000473 s⁻¹ | 0.583 nM | 0.000349 | 0.00352 s⁻¹ | 0.059 nM | 0.00352 s⁻¹ | 5.93e+07 M⁻¹ s⁻¹ | ~0.7 nM | no binding | 0.0594 nM | Tau01 HMKO HuG4k (antibody, V domains shown, human IgG4 kappa (HuG4K)) VH: LVQLVESGGGLVQPGGSLKLSCAASGFTFNTYAMNWVRQASGKGLEWVARIRSKSNNYATYYAASVKGRFTISRDDSKSMAYLQMDSLKTEDTAVYYCVGGGDFWGQGTLVTVSS VL: DIQMTQSPSSLSASVGDRVTITCRASQEISVYLGWYQQKPGKAPKRLIYGAFSLQSGVPSRFSGSRSGTEYTLTISSLQPEDFATYYCLQYVRYPWTFGGGTKVEIK |  |
| 0.000878 s⁻¹ | 0.624 nM | 0.000823 |  | 0.025 nM | 0.0015 s⁻¹ | 6.03e+07 M⁻¹ s⁻¹ | ~0.5 nM | no binding | 0.0249 nM | Tau01 HMKN HuG4k (antibody, V domains shown, human IgG4 kappa (HuG4K)) VH: LVQLVESGGGLVQPGGSLKLSCAASGFTFNTYAMNWVRQASGKGLEWVARIRSKSNNYATYYAASVKGRFTISRDDSKSMAYLQMDSLKTEDTAVYYCVGGGDFWGQGTLVTVSS VL: DIQMTQSPSSLSASVGDRVTITCRASQEISVYLGWYQQKPGKAPKRLIYGAFTLQSGVPSRFSGSRSGTEYTLTISSLQPEDFATYYCLQYVRYPWTFGGGTKVEIK |  |
| 0.000953 s⁻¹ | 0.437 nM and 0.532 nM | 0.000883 | 0.00283 s⁻¹ | 0.02 nM | 0.00283 s⁻¹ | 1.41e+08 M⁻¹ s⁻¹ | ~0.8 nM | no binding | 0.0201 nM | Tau01 HMKE HuG4k (antibody, V domains shown, human IgG4 kappa (HuG4K); also called KMKE) VH: LVQLVESGGGLVQPGGSLKLSCAASGFTFNTYAMNWVRQASGKGLEWVARIRSKSNNYATYYAASVKGRFTISRDDSKSMAYLQMDSLKTEDTAVYYCVGGGDFWGQGTLVTVSS VL: DIQMTQSPSSLSASVGDRVTITCRASQEISVYLGWFQQKPGKAPKRLIYGAFKLQSGVPSRFSGSRSGTEFTLTISSLQPEDFATYYCLQYVRYPWTFGGGTKVEIK |  |
